Laboratory results from patent publication US11844843 (DYNE THERAPEUTICS, dated 2023).

Key:
[1] = molecular target: T1, recombinant human TfR1 (transferrin receptor protein 1) (human, UniProt P02786 89-760); assay: Table 14, Fab-ASO300 conjugate; method not named
T1 construct: Recombinant protein in SPR and ELISA; they were assigned to this molecule; also called hTfR1; huTfR1

[2] = molecular target: T2, recombinant cynomolgus monkey (Macaca fascicularis) TfR1 (cynomolgus monkey (Macaca fascicularis), UniProt Q5RDH6 87-760 (Pongo abelii entry), limits assumed); assay: Table 14, Fab-ASO300 conjugate; method not named
T2 construct: Recombinant protein; also called cTfR1; cyTfR1
T2 chain: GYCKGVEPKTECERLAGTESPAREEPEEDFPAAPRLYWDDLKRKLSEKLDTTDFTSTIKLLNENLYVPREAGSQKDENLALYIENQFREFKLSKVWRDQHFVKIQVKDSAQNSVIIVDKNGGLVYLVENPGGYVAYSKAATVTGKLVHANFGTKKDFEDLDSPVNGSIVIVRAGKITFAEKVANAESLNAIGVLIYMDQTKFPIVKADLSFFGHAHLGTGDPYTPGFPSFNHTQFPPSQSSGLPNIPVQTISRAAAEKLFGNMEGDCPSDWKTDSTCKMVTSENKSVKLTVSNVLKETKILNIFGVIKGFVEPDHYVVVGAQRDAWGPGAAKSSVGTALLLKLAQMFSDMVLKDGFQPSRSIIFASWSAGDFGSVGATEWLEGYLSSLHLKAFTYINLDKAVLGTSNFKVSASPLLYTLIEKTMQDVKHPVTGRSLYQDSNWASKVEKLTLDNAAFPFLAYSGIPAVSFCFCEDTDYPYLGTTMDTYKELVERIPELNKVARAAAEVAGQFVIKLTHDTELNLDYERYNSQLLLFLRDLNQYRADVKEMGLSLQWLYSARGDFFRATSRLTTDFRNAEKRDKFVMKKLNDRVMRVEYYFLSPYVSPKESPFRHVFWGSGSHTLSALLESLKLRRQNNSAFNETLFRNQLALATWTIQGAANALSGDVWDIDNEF

[3] = molecular target: T1, recombinant human TfR1 (transferrin …); assay: ELISA, recombinant TfR1 coated, Fab-ASO300 conjugate (row 'Conjugate binding affinity ELISA')
[4] = molecular target: T2, recombinant cynomolgus monkey (Macaca …); assay: as above
[5] = molecular target: T1, recombinant human TfR1 (transferrin …); assay: ELISA on hTfR1, Fab conjugated to DMPK-targeting oligonucleotide, % normalized RFUs
[6] = molecular target: T2, recombinant cynomolgus monkey (Macaca …); assay: ELISA on cTfR1, Fab conjugated to DMPK-targeting oligonucleotide, % normalized RFUs

DMPK oligo conjugate binding [1]: 13.9 nM | DMPK oligo conjugate binding [2]: 13.9 nM | EC50 [3]: 23.7 nM | EC50 [4]: 3.3 nM | EC50 [5]: 25.5 nM | EC50 [6]: 2.8 nM
B1: conjugate of humanized anti-TfR Fab 5H12 VH5 (C33Y)/Vκ4 with DMPK-targeting oligonucleotide ASO300 (Fab, V domains shown)
VH: QVQLVQSGAEVKKPGASVKVSCKASGYSFTDYYINWVRQAPGQGLEWMGWIYPGSGNTRYSERFKGRVTITRDTSASTAYMELSSLRSEDTAVYYCAREDYYPYHGMDYWGQGTLVTVSS
VL: DIVMTQSPDSLAVSLGERATINCRASESVDGYDNSFMHWYQQKPGQPPKLLIFRASNLESGVPDRFSGSGSGTDFTLTISSLQAEDVAVYYCQQSSEDPWTFGQGTKLEIKR
modifications: oligonucleotide ASO300 conjugated to the Fab via linker; residue and chain not stated
